Article PMC3316156 (Biochemical Journal, 2012)

B1: CBS-1 (Caenorhabditis elegans) (protein)
chain: MIQNEVSATHGSTKKGITYNTILEAAQRPTPLVPLKKLKVEHQLQSDIYVKLEYLNIAGSLEDRTADKAFQFAEEIGVVRGDEVFVTAGGSAAISYATVAAVKGIKLTIYAPKGEFDLVDTVLHTLGVKTVELPFGTFAEARVQTDEAAQQKGVFSLNKFTTNAAFVANLQKTALEIEKAVNNKSIGKVGAVVIPLNTGAAAAGIAAYYKGIGEHGVRVVGVTCKKDTIPEMGLDLKNDLLQEYNVEKREVEEDEAYSFTRHLIGTEGIMAGPSSGAAVLEAIKLAKELPAGSTIVVVLMDGIRNYLRHFLDDDWITANKKDVVTRKDGPQPNSIYDPKVLVYDPTKLAGEWTQDPETKSWSHSEVEFNKFNPERPLVLDTVLDAIGKTPLVKLQHIPKAHGVKCNVYVKCEYMNAGGSTKDRIAKRMVEIAEKTGKPGKLVPGVTLIEPTSGNTGIGLSLASAVRGYKCIITMPKKMSKEKSIAMASLGSTIIRTPNEAGFDSPHSHIGVALRLKSEIQDAVVLDQYCNPGNPLAHYEETAEEIIYDMGDKHIDLVVLTAGTGGTVTGISRKIHERIPTAKVVGVDPHGSILAGPAETDIDFYEVEGIGYDFLPGTLDTSAIDYWAKSHDKESFLMARELIRSEGILCGGSSGCAVHYALEECKSLNLPAEANVVVLLPDGIRNYITKFLDDDWMNERHFLDA
B2: human 45CBS (C-terminally truncated human cystathionine β-synthase, residues 1-413) (domain or fragment, UniProt P35520 1-413, looked up)
chain: MPSETPQAEVGPTGCPHRSGPHSAKGSLEKGSPEDKEAKEPLWIRPDAPSRCTWQLGRPASESPHHHTAPAKSPKILPDILKKIGDTPMVRINKIGKKFGLKCELLAKCEFFNAGGSVKDRISLRMIEDAERDGTLKPGDTIIEPTSGNTGIGLALAAAVRGYRCIIVMPEKMSSEKVDVLRALGAEIVRTPTNARFDSPESHVGVAWRLKNEIPNSHILDQYRNASNPLAHYDTTADEILQQCDGKLDMLVASVGTGGTITGIARKLKEKCPGCRIIGVDPEGSILAEPEELNQTEQTTYEVEGIGYDFIPTVLDRTVVDKWFKSNDEEAFTFARMLIAQEGLLCGGSAGSTVAVAVKAAQELQEGQRCVVILPDSVRNYMTKFLSDRWMLQKGFLKEEDLTEKKPWWWHLR

Experiments:
[1] = substrate: N[C@@H](CCS)C(=O)O; assay: cystathionine production by LC-MS/MS, non-linear fit; type: biochemical, Caenorhabditis elegans; details: co-substrate serine, 100 mM Bis/Tris pH 8.0, 25 °C
[2] = substrate: N[C@@H](CO)C(=O)O; assay: as above; type: biochemical, Caenorhabditis elegans; details: co-substrate homocysteine, 100 mM Bis/Tris pH 8.0, 25 °C
cross-linking = target: the molecule itself; assay: cross-linking

| Protein | Km [1] [mM] | kcat [1] [s⁻¹] | kcat/Km [1] [M⁻¹ s⁻¹] | Km [2] [mM] | kcat [2] [s⁻¹] | kcat/Km [2] [M⁻¹ s⁻¹] | stoichiometry N (cross-linking) |
| --- | --- | --- | --- | --- | --- | --- | --- |
| B1 | 4.29 ± 0.97 | 43.3 ± 4.33 | 10000 | 5.57 ± 0.68 | 48.1 ± 2.95 | 8500 |  |
| B2 |  |  |  |  |  |  | 2 |
